We go through two molecules from patent EP0769025B1.

Assay [1] addresses monoclonal antibody AF-28. Put plainly: competition ELISA, competitor against plate-coated 32-mer for AF-28. (In general: In an ELISA, binding on a coated surface is turned into a signal by an enzyme label.)
For assay [2], the target named is monoclonal antibody AF-28. The experiment in a line: competition ELISA, 32-mer as both coating (25 pmoles/ml, Figure 6b) and standard antigen.

FGVGGEEDI [… 9-mer] registered a times less competitive than the 32-mer in assay [1] of 230 times.
As to FFGVGGEEDITVQTVTWPDMELPLPRNITEGE [… (FFGVG...EGE 32-mer) synthetic peptide], the IC50 (as a rule, the point on the concentration scale where inhibition reaches its midpoint) in assay [2] is 16 nM.
